System: SDM-25

Sequence of MMP9 protease (chain, as listed by the source): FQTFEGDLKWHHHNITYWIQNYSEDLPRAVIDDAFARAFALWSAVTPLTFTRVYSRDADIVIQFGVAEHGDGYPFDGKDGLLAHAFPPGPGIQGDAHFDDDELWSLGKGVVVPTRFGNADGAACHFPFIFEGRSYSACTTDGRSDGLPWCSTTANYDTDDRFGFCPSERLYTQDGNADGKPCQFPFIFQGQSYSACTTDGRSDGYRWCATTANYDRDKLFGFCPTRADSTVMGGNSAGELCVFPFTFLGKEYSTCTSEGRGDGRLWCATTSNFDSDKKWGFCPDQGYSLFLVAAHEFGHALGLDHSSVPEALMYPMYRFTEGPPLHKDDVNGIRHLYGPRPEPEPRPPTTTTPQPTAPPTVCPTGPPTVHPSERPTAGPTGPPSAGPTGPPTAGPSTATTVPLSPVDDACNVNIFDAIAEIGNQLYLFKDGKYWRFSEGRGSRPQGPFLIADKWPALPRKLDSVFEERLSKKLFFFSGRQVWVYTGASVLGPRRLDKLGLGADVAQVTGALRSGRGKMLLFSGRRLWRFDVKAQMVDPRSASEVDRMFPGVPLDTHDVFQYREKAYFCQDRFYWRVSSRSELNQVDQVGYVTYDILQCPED

MMP9 protease
fluorescence emission spectra (630 nm excitation) before and after protease treatment; FRET loss on cleavage: After cleavage, Cy7 no longer quenches Cy5, resulting in an increase of the 670 nm Cy5 emission peak and a reduction of the Cy7 re-emission at 780 nm

— patent US20200150041
